Measured values: patent US20180009892A1

How the values were obtained:
[1] = target: T1, human ROR1 extracellular domain (ECD) protein (human), Q01973; assay: ForteBio Octet, Wnt5a binding to ROR1 in the presence of antibody 601-3-12
[2] = target: T1, human ROR1 extracellular domain (ECD) …; assay: ForteBio Octet, Wnt5a binding to ROR1 in the presence of antibody 601-3-16
[3] = target: T1, human ROR1 extracellular domain (ECD) …; assay: ForteBio Octet, Wnt5a binding to ROR1 in the presence of the control mAb
[4] = target: T1, human ROR1 extracellular domain (ECD) …; assay: ForteBio Octet, Wnt5a binding to ROR1 in the presence of antibody 601-3-2

T1 sequence (Q01973 30-406 limits assumed): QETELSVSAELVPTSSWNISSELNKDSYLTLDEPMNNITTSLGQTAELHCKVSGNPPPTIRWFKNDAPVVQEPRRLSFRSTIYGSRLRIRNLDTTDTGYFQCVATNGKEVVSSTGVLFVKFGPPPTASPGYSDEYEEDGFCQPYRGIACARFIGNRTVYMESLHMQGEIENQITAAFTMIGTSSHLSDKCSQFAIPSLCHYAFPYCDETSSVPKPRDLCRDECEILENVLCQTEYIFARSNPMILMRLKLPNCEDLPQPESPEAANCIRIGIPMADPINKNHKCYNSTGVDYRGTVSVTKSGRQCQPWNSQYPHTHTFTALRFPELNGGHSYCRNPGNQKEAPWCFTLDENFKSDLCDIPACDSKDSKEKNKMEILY

- Pesudo ka [1]: 5300 M⁻¹ s⁻¹
- Pesudo ka [2]: 6700 M⁻¹ s⁻¹
- Pesudo ka [3]: 21000 M⁻¹ s⁻¹
- Pesudo ka [4]: 13000 M⁻¹ s⁻¹
B1: Wnt5a, P41221 62-380 (ligand, UniProt P41221 62-380, looked up)
chain: IIGAQPLCSQLAGLSQGQKKLCHLYQDHMQYIGEGAKTGIKECQYQFRHRRWNCSTVDNTSVFGRVMQIGSRETAFTYAVSAAGVVNAMSRACREGELSTCGCSRAARPKDLPRDWLWGGCGDNIDYGYRFAKEFVDARERERIHAKGSYESARILMNLHNNEAGRRTVYNLADVACKCHGVSGSCSLKTCWLQLADFRKVGDALKEKYDSAAAMRLNSRGKLVQVNSRFNSPTTQDLVYIDPSPDYCVRNESTGSLGTQGRLCNKTSEGMDGCELMCCGRGYDQFKTVQTERCHCKFHWCCYVKCKKCTEIVDQFVCK
